The results in this text go back to paper PMC10786891, “Massively parallel profiling of RNA-targeting CRISPR-Cas13d”.

Sequences and labels used below:
T1: EsCas13d, nuclease-dead (Eubacterium siraeum, UniProt B0MS50, R295A;H300A;R849A;H854A)
T1 sequence: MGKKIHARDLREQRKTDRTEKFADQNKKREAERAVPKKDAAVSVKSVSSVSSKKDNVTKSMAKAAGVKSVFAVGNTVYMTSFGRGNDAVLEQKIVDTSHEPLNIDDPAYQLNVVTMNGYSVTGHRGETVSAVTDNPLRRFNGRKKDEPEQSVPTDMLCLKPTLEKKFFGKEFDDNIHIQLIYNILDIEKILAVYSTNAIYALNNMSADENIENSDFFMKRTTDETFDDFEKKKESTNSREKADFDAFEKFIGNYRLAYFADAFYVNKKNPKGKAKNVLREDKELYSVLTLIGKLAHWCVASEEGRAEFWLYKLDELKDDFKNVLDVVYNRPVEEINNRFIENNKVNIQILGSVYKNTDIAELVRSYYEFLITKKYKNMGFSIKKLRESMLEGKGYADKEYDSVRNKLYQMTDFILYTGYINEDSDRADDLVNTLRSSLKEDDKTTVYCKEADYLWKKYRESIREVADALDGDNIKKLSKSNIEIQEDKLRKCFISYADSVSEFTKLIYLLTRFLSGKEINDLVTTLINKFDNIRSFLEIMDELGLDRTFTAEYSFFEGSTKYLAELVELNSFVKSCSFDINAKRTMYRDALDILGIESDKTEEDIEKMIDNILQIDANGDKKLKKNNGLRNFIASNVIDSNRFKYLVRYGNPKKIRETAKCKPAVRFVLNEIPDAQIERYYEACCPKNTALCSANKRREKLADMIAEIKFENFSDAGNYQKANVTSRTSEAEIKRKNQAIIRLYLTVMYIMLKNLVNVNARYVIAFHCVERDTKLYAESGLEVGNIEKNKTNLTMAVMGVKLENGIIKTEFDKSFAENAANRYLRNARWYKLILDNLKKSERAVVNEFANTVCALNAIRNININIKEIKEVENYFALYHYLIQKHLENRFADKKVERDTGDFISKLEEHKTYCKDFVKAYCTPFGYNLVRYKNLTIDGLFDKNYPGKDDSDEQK

B1: target 2 MT 5'PFS AUU 3'PFS AAC (mixed)
RNA 1: CACCCGUGCAAAAUUGCAGGGGUCUAAAACCUUCUCCAAAUUGUUUCAUCCU
RNA 2: GGGAAUGGAUCCACAUCUACGAAUUCAUUAGGAUGAAACAAUUUGGAGAAGAACAGAUCGGAAGAGCACACGU
B2: target 2 MT 5'PFS CUG 3'PFS UAA (mixed)
RNA 1: CACCCGUGCAAAAUUGCAGGGGUCUAAAACCUUCUCCAAAUUGUUUCAUCCU
RNA 2: GGGAAUGGAUCCACAUCUACGAAUUCCUGAGGAUGAAACAAUUUGGAGAAGUAAAGAUCGGAAGAGCACACGU
B3: target 2 MT 5'PFS GCA 3'PFS AGC (mixed)
RNA 1: CACCCGUGCAAAAUUGCAGGGGUCUAAAACCUUCUCCAAAUUGUUUCAUCCU
RNA 2: GGGAAUGGAUCCACAUCUACGAAUUCGCAAGGAUGAAACAAUUUGGAGAAGAGCAGAUCGGAAGAGCACACGU
B4: target 2 MT 5'PFS UGG 3'PFS UCU (mixed)
RNA 1: CACCCGUGCAAAAUUGCAGGGGUCUAAAACCUUCUCCAAAUUGUUUCAUCCU
RNA 2: GGGAAUGGAUCCACAUCUACGAAUUCUGGAGGAUGAAACAAUUUGGAGAAGUCUAGAUCGGAAGAGCACACGU
B5: target 2 MT 5'PFS UAU 3'PFS AAA (mixed)
RNA 1: CACCCGUGCAAAAUUGCAGGGGUCUAAAACCUUCUCCAAAUUGUUUCAUCCU
RNA 2: GGGAAUGGAUCCACAUCUACGAAUUCUAUAGGAUGAAACAAUUUGGAGAAGAAAAGAUCGGAAGAGCACACGU
B6: target 2 MT 5'PFS GGA 3'PFS UUC (mixed)
RNA 1: CACCCGUGCAAAAUUGCAGGGGUCUAAAACCUUCUCCAAAUUGUUUCAUCCU
RNA 2: GGGAAUGGAUCCACAUCUACGAAUUCGGAAGGAUGAAACAAUUUGGAGAAGUUCAGAUCGGAAGAGCACACGU
B7: target 2 MT 5'PFS GGA 3'PFS UUA (mixed)
RNA 1: CACCCGUGCAAAAUUGCAGGGGUCUAAAACCUUCUCCAAAUUGUUUCAUCCU
RNA 2: GGGAAUGGAUCCACAUCUACGAAUUCGGAAGGAUGAAACAAUUUGGAGAAGUUAAGAUCGGAAGAGCACACGU
B8: target 2 MT 5'PFS AGG 3'PFS CUG (mixed)
RNA 1: CACCCGUGCAAAAUUGCAGGGGUCUAAAACCUUCUCCAAAUUGUUUCAUCCU
RNA 2: GGGAAUGGAUCCACAUCUACGAAUUCAGGAGGAUGAAACAAUUUGGAGAAGCUGAGAUCGGAAGAGCACACGU
B9: target 2 MT 5'PFS UCU 3'PFS AUA (mixed)
RNA 1: CACCCGUGCAAAAUUGCAGGGGUCUAAAACCUUCUCCAAAUUGUUUCAUCCU
RNA 2: GGGAAUGGAUCCACAUCUACGAAUUCUCUAGGAUGAAACAAUUUGGAGAAGAUAAGAUCGGAAGAGCACACGU
B10: target 2 MT 5'PFS AUU 3'PFS AUG (mixed)
RNA 1: CACCCGUGCAAAAUUGCAGGGGUCUAAAACCUUCUCCAAAUUGUUUCAUCCU
RNA 2: GGGAAUGGAUCCACAUCUACGAAUUCAUUAGGAUGAAACAAUUUGGAGAAGAUGAGAUCGGAAGAGCACACGU
B11: target 2 MT 5'PFS AGG 3'PFS CUC (mixed)
RNA 1: CACCCGUGCAAAAUUGCAGGGGUCUAAAACCUUCUCCAAAUUGUUUCAUCCU
RNA 2: GGGAAUGGAUCCACAUCUACGAAUUCAGGAGGAUGAAACAAUUUGGAGAAGCUCAGAUCGGAAGAGCACACGU
B12: target 2 MT 5'PFS GGU 3'PFS UAU (mixed)
RNA 1: CACCCGUGCAAAAUUGCAGGGGUCUAAAACCUUCUCCAAAUUGUUUCAUCCU
RNA 2: GGGAAUGGAUCCACAUCUACGAAUUCGGUAGGAUGAAACAAUUUGGAGAAGUAUAGAUCGGAAGAGCACACGU
B13: target 2 MT 5'PFS AGG 3'PFS CUU (mixed)
RNA 1: CACCCGUGCAAAAUUGCAGGGGUCUAAAACCUUCUCCAAAUUGUUUCAUCCU
RNA 2: GGGAAUGGAUCCACAUCUACGAAUUCAGGAGGAUGAAACAAUUUGGAGAAGCUUAGAUCGGAAGAGCACACGU
B14: target 2 MT 5'PFS GCA 3'PFS CGA (mixed)
RNA 1: CACCCGUGCAAAAUUGCAGGGGUCUAAAACCUUCUCCAAAUUGUUUCAUCCU
RNA 2: GGGAAUGGAUCCACAUCUACGAAUUCGCAAGGAUGAAACAAUUUGGAGAAGCGAAGAUCGGAAGAGCACACGU
B15: target 2 MT 5'PFS CUA 3'PFS ACC (mixed)
RNA 1: CACCCGUGCAAAAUUGCAGGGGUCUAAAACCUUCUCCAAAUUGUUUCAUCCU
RNA 2: GGGAAUGGAUCCACAUCUACGAAUUCCUAAGGAUGAAACAAUUUGGAGAAGACCAGAUCGGAAGAGCACACGU
B16: target 2 MT 5'PFS GGA 3'PFS UUG (mixed)
RNA 1: CACCCGUGCAAAAUUGCAGGGGUCUAAAACCUUCUCCAAAUUGUUUCAUCCU
RNA 2: GGGAAUGGAUCCACAUCUACGAAUUCGGAAGGAUGAAACAAUUUGGAGAAGUUGAGAUCGGAAGAGCACACGU
B17: target 2 MT 5'PFS CUG 3'PFS UAU (mixed)
RNA 1: CACCCGUGCAAAAUUGCAGGGGUCUAAAACCUUCUCCAAAUUGUUUCAUCCU
RNA 2: GGGAAUGGAUCCACAUCUACGAAUUCCUGAGGAUGAAACAAUUUGGAGAAGUAUAGAUCGGAAGAGCACACGU
B18: target 2 MT 5'PFS GGU 3'PFS UAA (mixed)
RNA 1: CACCCGUGCAAAAUUGCAGGGGUCUAAAACCUUCUCCAAAUUGUUUCAUCCU
RNA 2: GGGAAUGGAUCCACAUCUACGAAUUCGGUAGGAUGAAACAAUUUGGAGAAGUAAAGAUCGGAAGAGCACACGU
B19: target 2 MT 5'PFS GCA 3'PFS AGA (mixed)
RNA 1: CACCCGUGCAAAAUUGCAGGGGUCUAAAACCUUCUCCAAAUUGUUUCAUCCU
RNA 2: GGGAAUGGAUCCACAUCUACGAAUUCGCAAGGAUGAAACAAUUUGGAGAAGAGAAGAUCGGAAGAGCACACGU
B20: target 2 MT 5'PFS GCA 3'PFS CGC (mixed)
RNA 1: CACCCGUGCAAAAUUGCAGGGGUCUAAAACCUUCUCCAAAUUGUUUCAUCCU
RNA 2: GGGAAUGGAUCCACAUCUACGAAUUCGCAAGGAUGAAACAAUUUGGAGAAGCGCAGAUCGGAAGAGCACACGU
B21: target 2 MT 5'PFS UAU 3'PFS AAU (mixed)
RNA 1: CACCCGUGCAAAAUUGCAGGGGUCUAAAACCUUCUCCAAAUUGUUUCAUCCU
RNA 2: GGGAAUGGAUCCACAUCUACGAAUUCUAUAGGAUGAAACAAUUUGGAGAAGAAUAGAUCGGAAGAGCACACGU
B22: target 1 insC 3' of 9,insU 3' of 1 (mixed)
RNA 1: CACCCGUGCAAAAAUGCAGGGGUCUAAAACUGAGCGGAUAACCUCUCUAUGG
RNA 2: GGGAAUGGAUCCACAUCUACGAAUUCGUACCAUAGAGAGGUUACUCCGCUCAUCCGAGAUCGGAAGAGCACACGU
B23: target 1 insU 3' of 14,insA 3' of 4 (mixed)
RNA 1: CACCCGUGCAAAAAUGCAGGGGUCUAAAACUGAGCGGAUAACCUCUCUAUGG
RNA 2: GGGAAUGGAUCCACAUCUACGAAUUCGUACCAUAGAGAUGGUUAUCCGCAUCACCGAGAUCGGAAGAGCACACGU

As usually defined, the Kd is the free concentration of one partner at which half of the binding sites on the other are occupied at equilibrium, for simple one-to-one binding. Low values mean a tighter complex, high ones a looser complex.

This data set deals with T1, EsCas13d, nuclease-dead. The data set is described as follows: crRNA (strand 1, pre-loaded); Mg2+; 40 mM Tris-HCl pH 7.5, 150 mM NaCl, 6 mM MgCl2, 1 mM DTT, 0.1% Tween-20, 0.2 mg/ml BSA; 25 C; 10 min per concentration, then washed. Particulars: tags: His6-TwinStrep-SUMO cleaved; N-terminal SNAP kept (SNAP-Surface 488); label: 3' end held by stalled T7 RNA polymerase.
Turning to B1, the affinity, expressed as Kd, was 7.3 ± 0.9 nM.
Under B2 stands 2.77 ± 0.2 nM.
Then B3, with 7.5 ± 1.6 nM; and B4, with 41 ± 11 nM.
Under B5 stands 18 ± 3.5 nM.
B6 showed a dissociation constant Kd of 28 ± 6 nM.
For B7, binding was put at a Kd of 18.1 ± 3.5 nM.
Then B8, with 7.4 ± 0.9 nM.
Then B9, with 9.3 ± 1.1 nM; and B10, with 7.5 ± 0.8 nM.
In turn, B11 registered a Kd of 9.4 ± 1.7 nM.
In the case of B12, the dissociation constant (Kd) was 17.6 ± 3.3 nM.
Under B13 stands 7.3 ± 0.9 nM.
Regarding B14, the dissociation constant (Kd) came to 8.4 ± 1.1 nM.
Then B15, with 1.8 ± 0.4 nM; and B16, with 18.3 ± 2.7 nM; and B17, with 5.3 ± 1.2 nM.
Take B18: binding was put at a Kd of 9.8 ± 1.1 nM.
Then B19, with 8.2 ± 1.7 nM; and B20, with 13.1 ± 1.9 nM; and B21, with 16.2 ± 1.5 nM.
Then B22, with 14.6 ± 0.7 nM; and B23, with 26 ± 4 nM.
